For this data set, the target named is Gli1 (from hisSUMO-Gli1, Addgene 87225, His-SUMO tag cleaved) (UniProt P08151 234-388). Description: SPR.
Sequence of Gli1 (from hisSUMO-Gli1, Addgene 87225, His-SUMO tag cleaved) (P08151 234-388): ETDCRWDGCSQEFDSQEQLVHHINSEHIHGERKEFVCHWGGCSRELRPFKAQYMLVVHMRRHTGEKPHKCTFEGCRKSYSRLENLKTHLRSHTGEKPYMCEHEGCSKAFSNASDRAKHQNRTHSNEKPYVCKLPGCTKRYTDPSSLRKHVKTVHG

B1: biotinylated GLI1 consensus dsDNA (SPR) (dsDNA)
DNA 1: ACGTGGACCACCCAAGACGAA
DNA 2: TTTCGTCTTGGGTGGTCCACGT
Consider B1, for which the binding result is “binds”.

Values taken from article PMC7873571.
